# Laboratory results published in patent publication US20030176382.
# T1: synthetic peptide substrate ALERTFLSFPT
# T1 chain: ALERTFLSFPT
# Target: T1, synthetic peptide substrate ALERTFLSFPT
protein,measurement,value
aspartyl proteinase purified from the adult hookworm Necator americanus (protein) GVYKIPLKRITPPMIKMLRAGTWETYVEGMRKRQLQLLKEHKVHIQDVLGYANMEYLGEITIGTPQQKFLVVLDTGSSNLWVPDDSCYKEKRPDRCLVSNCDAGLVCQVFCPDPKCCEHTREFKQVNACKDKHRFDQKNSNTYVKTNKTWAIAYGTGDARGFFGRDTVRLGAEGKDQLVINDTWFGQAEHIAEFFSNTFLDGILGLAFQELSEGGVAPPIIRAIDLGLLDQPIFTVYFENVGDKEGVYGGVFTWGGLDPDHCEDEVTYEQLTEATYWQFRLKGVSSKNFSSTAGWEAISDTGTSLNGAPRGILRSIARQYNGQYVASQGLYVVDCSKNVTVDVTIGDRNYTMTAKNLVLEIQADICIMAFFEMDMFIGPAWILGDPFIREYCNIHDIEKKRIGFAAVKH,substrate specificity assay (cleavage of a synthetic peptide substrate),the proteinase cleaved the synthetic peptide substrate ALERTFLSFPT (SEQ ID NO. 7)
